For 51 substances, ATIII Kapp (second-order rate constant of inhibition) and kapp (apparent second-order rate constant for inhibition) results are on record in patent US20210238260A1.

The first experiment deals with Antithrombin III (ATIII) (human) (UniProt P01008). Nature of the experiment: inhibition of FIXa by ATIII, residual FIXa activity; heparin not given.
Substance “BeneFIX Coagulation Factor IX (Recombinant) (activated, FIXa) (from UniProt P00740 47-191; P00740 227-461) (enzyme)” gave an ATIII Kapp (second-order rate constant of inhibition) of 1.6e+07 M⁻¹ s⁻¹.

Regarding “WT-recombinant FIX (native amino-acid sequence, made in the Sponsor's laboratory; activated, FIXa) (from UniProt P00740 47-191; P00740 227-461) (enzyme)”, the ATIII Kapp (second-order rate constant of inhibition) was determined as 2.4e+07 M⁻¹ s⁻¹.

“FIX of SEQ ID NO: 394, with the replacements R318Y/R338E/T343R (activated, FIXa) (from UniProt P00740 47-191; P00740 227-461) (enzyme)” showed an ATIII Kapp (second-order rate constant of inhibition) of 1.1e+06 M⁻¹ s⁻¹.

The target of another experiment is plasma purified human antithrombin III (AT-III), in complex with unfractionated heparin (UFH) (human) (UniProt P01008). Nature of the experiment: inhibition of FIXa by AT-III/UFH, residual activity on Mesyl-D-CHG-Gly-Arg-AMC, pseudo-first-order.
Consider “FIXa-Y155F/K247N/N249S/R318Y/T343R/R403E (from UniProt P00740 47-191; P00740 227-461) (enzyme)”, for which the kapp (apparent second-order rate constant for inhibition) came out at 12000 M⁻¹ s⁻¹.

For “FIXa-R318Y/T343R/E410N (from UniProt P00740 47-191; P00740 227-461) (enzyme)”, the kapp (apparent second-order rate constant for inhibition) came out at 1.2e+06 M⁻¹ s⁻¹.

As to “FIXa-Y155F/K247N/N249S/T343R/R403E/E410N (from UniProt P00740 47-191; P00740 227-461) (enzyme)”, the kapp (apparent second-order rate constant for inhibition) was 620000 M⁻¹ s⁻¹.

Regarding “FIXa-K228N/K247N/N249S/R318Y/R338E/T343R/E410N (from UniProt P00740 47-191; P00740 227-461) (enzyme)”, the kapp (apparent second-order rate constant for inhibition) is 630000 M⁻¹ s⁻¹.

As for “FIXa-K247N/N249S/R318Y/T343R/E410N (from UniProt P00740 47-191; P00740 227-461) (enzyme)”, the kapp (apparent second-order rate constant for inhibition) was 49000 M⁻¹ s⁻¹.

As for “FIXa-Y155F/R338E/T343R/E410N (from UniProt P00740 47-191; P00740 227-461) (enzyme)”, the kapp (apparent second-order rate constant for inhibition) is 1.3e+07 M⁻¹ s⁻¹.

“FIXa-R318Y/R338E/T343R (from UniProt P00740 47-191; P00740 227-461) (enzyme)”: the kapp (apparent second-order rate constant for inhibition) came to 1.8e+06 M⁻¹ s⁻¹.

“FIXa-Y155F/K247N/N249S/R318Y/T343R/R403E/E410N (from UniProt P00740 47-191; P00740 227-461) (enzyme)”: the kapp (apparent second-order rate constant for inhibition) is 28000 M⁻¹ s⁻¹.

As to “FIXa-Y155F/R318Y/T343R/E410N (from UniProt P00740 47-191; P00740 227-461) (enzyme)”, the kapp (apparent second-order rate constant for inhibition) was 200000 M⁻¹ s⁻¹.

Take “FIXa-K247N/N249S/R338E/T343R/R403E (from UniProt P00740 47-191; P00740 227-461) (enzyme)”: the kapp (apparent second-order rate constant for inhibition) stood at 50000 M⁻¹ s⁻¹.

“FIXa-Y155F/K247N/N249S/R403E/E410N (from UniProt P00740 47-191; P00740 227-461) (enzyme)”: the kapp (apparent second-order rate constant for inhibition) stood at 130000 M⁻¹ s⁻¹.

Regarding “FIXa-Y155F/K247N/N249S/R338E/E410N (from UniProt P00740 47-191; P00740 227-461) (enzyme)”, the kapp (apparent second-order rate constant for inhibition) came out at 2.9e+06 M⁻¹ s⁻¹.

Take “FIXa-K247N/N249S/R318Y/R338E/T343R/E410N (from UniProt P00740 47-191; P00740 227-461) (enzyme)”: the kapp (apparent second-order rate constant for inhibition) amounted to 210000 M⁻¹ s⁻¹.

For “FIXa-K247N/N249S/R318Y/R338E/T343R (from UniProt P00740 47-191; P00740 227-461) (enzyme)”, the kapp (apparent second-order rate constant for inhibition) came to 320000 M⁻¹ s⁻¹.

Regarding “FIXa-R338E/T343R/E410N (from UniProt P00740 47-191; P00740 227-461) (enzyme)”, the kapp (apparent second-order rate constant for inhibition) turned out to be 2e+07 M⁻¹ s⁻¹.

“FIXa-K247N/N249S/R318Y/T343R/R403E (from UniProt P00740 47-191; P00740 227-461) (enzyme)”: the kapp (apparent second-order rate constant for inhibition) was found to be 9800 M⁻¹ s⁻¹.

With “FIXa-K228N/K247N/N249S/R318Y/R338E/T343R/R403E (from UniProt P00740 47-191; P00740 227-461) (enzyme)”, the kapp (apparent second-order rate constant for inhibition) amounted to 1000 M⁻¹ s⁻¹.

As for “FIXa-Y155F/T343R/R403E/E410N (from UniProt P00740 47-191; P00740 227-461) (enzyme)”, the kapp (apparent second-order rate constant for inhibition) was found to be 880000 M⁻¹ s⁻¹.

Turning to “FIXa-K247N/N249S/R318Y/T343R/R403E/E410N (from UniProt P00740 47-191; P00740 227-461) (enzyme)”, the kapp (apparent second-order rate constant for inhibition) came out at 25000 M⁻¹ s⁻¹.

On to “FIXa-K228N/K247N/N249S/R318Y/T343R/R403E/E410N (from UniProt P00740 47-191; P00740 227-461) (enzyme)”, for which the kapp (apparent second-order rate constant for inhibition) amounted to 17000 M⁻¹ s⁻¹.

For “FIXa-Y155F/K247N/N249S/R318Y/R338E/T343R (from UniProt P00740 47-191; P00740 227-461) (enzyme)”, the kapp (apparent second-order rate constant for inhibition) stood at 370000 M⁻¹ s⁻¹.

Take “FIXa-Y155F/K247N/N249S/R318Y/T343R/E410N (from UniProt P00740 47-191; P00740 227-461) (enzyme)”: the kapp (apparent second-order rate constant for inhibition) is 360000 M⁻¹ s⁻¹.

In the case of “FIXa-K228N/R318Y/R338E/T343R/R403E/E410N (from UniProt P00740 47-191; P00740 227-461) (enzyme)”, the kapp (apparent second-order rate constant for inhibition) came out at 7100 M⁻¹ s⁻¹.

“FIXa-Y155F/R318Y/T343R/R403E (from UniProt P00740 47-191; P00740 227-461) (enzyme)”: the kapp (apparent second-order rate constant for inhibition) amounted to 11000 M⁻¹ s⁻¹.

Turning to “FIXa-Y155F/K247N/N249S/R338E/T343R/R403E (from UniProt P00740 47-191; P00740 227-461) (enzyme)”, the kapp (apparent second-order rate constant for inhibition) is 44000 M⁻¹ s⁻¹.

As to “FIXa-K247N/N249S/R338E/T343R/E410N (from UniProt P00740 47-191; P00740 227-461) (enzyme)”, the kapp (apparent second-order rate constant for inhibition) is 1.4e+07 M⁻¹ s⁻¹.

For another experiment, the target named is antithrombin III (plasma purified human AT-III), in complex with unfractionated heparin (human) (UniProt P01008). The experiment is described as follows: AT-III/UFH inhibition of FIXa; residual activity on Pefafluor FIXa substrate, varied incubation time.
Regarding “FIXa T343R (from UniProt P00740 47-191; P00740 227-461) (enzyme)”, the kapp (apparent second-order rate constant for inhibition) worked out at 4.2e+06 M⁻¹ s⁻¹.

Consider “FIXa N346Y (from UniProt P00740 47-191; P00740 227-461) (enzyme)”, for which the kapp (apparent second-order rate constant for inhibition) was found to be 840000 M⁻¹ s⁻¹.

Consider “FIXa I251S/R318Y/R338E/R403E/E410N (from UniProt P00740 47-191; P00740 227-461) (enzyme)”, for which the kapp (apparent second-order rate constant for inhibition) came out at 3000 M⁻¹ s⁻¹.

Regarding “FIXa D104N/K106S/Y155F/K247N/N249S/R318Y/R338E/R403E/E410N (from UniProt P00740 47-191; P00740 227-461) (enzyme)”, the kapp (apparent second-order rate constant for inhibition) came to 1000 M⁻¹ s⁻¹.

“FIXa D104N/K106S/R318Y/R338E/R403E/E410N (from UniProt P00740 47-191; P00740 227-461) (enzyme)”: the kapp (apparent second-order rate constant for inhibition) stood at 3900 M⁻¹ s⁻¹.

With “FIXa T343Q (from UniProt P00740 47-191; P00740 227-461) (enzyme)”, the kapp (apparent second-order rate constant for inhibition) came to 2.1e+06 M⁻¹ s⁻¹.

For the substance “FIXa R318Y/R338E/R403E/E410S (from UniProt P00740 47-191; P00740 227-461) (enzyme)”, the kapp (apparent second-order rate constant for inhibition) is 1600 M⁻¹ s⁻¹.

For the substance “FIXa Y345T (from UniProt P00740 47-191; P00740 227-461) (enzyme)”, the kapp (apparent second-order rate constant for inhibition) worked out at 1.8e+06 M⁻¹ s⁻¹.

For the substance “FIXa D104N/K106S/I251S/R318Y/R338E/R403E/E410N (from UniProt P00740 47-191; P00740 227-461) (enzyme)”, the kapp (apparent second-order rate constant for inhibition) turned out to be 5700 M⁻¹ s⁻¹.

Take “FIXa Y155F/K247N/N249S/R318Y/R338E/E410N (from UniProt P00740 47-191; P00740 227-461) (enzyme)”: the kapp (apparent second-order rate constant for inhibition) is 180000 M⁻¹ s⁻¹.

In the case of “FIXa Y155F/N346D (from UniProt P00740 47-191; P00740 227-461) (enzyme)”, the kapp (apparent second-order rate constant for inhibition) turned out to be 4e+06 M⁻¹ s⁻¹.

On to “FIXa I251S/R318Y/R338E/E410N (from UniProt P00740 47-191; P00740 227-461) (enzyme)”, for which the kapp (apparent second-order rate constant for inhibition) turned out to be 240000 M⁻¹ s⁻¹.

Take “FIXa R318Y/R338E (from UniProt P00740 47-191; P00740 227-461) (enzyme)”: the kapp (apparent second-order rate constant for inhibition) is 620000 M⁻¹ s⁻¹.

Take “FIXa R318Y/R403E/E410N (from UniProt P00740 47-191; P00740 227-461) (enzyme)”: the kapp (apparent second-order rate constant for inhibition) was 28000 M⁻¹ s⁻¹.

In the case of “FIXa A103N/N105S/R318Y/R338E/R403E/E410N (from UniProt P00740 47-191; P00740 227-461) (enzyme)”, the kapp (apparent second-order rate constant for inhibition) was 2600 M⁻¹ s⁻¹.

Consider “FIXa K228N/R318Y/R338E/R403E/E410N (from UniProt P00740 47-191; P00740 227-461) (enzyme)”, for which the kapp (apparent second-order rate constant for inhibition) is 2900 M⁻¹ s⁻¹.

As to “FIXa T343R/Y345T (from UniProt P00740 47-191; P00740 227-461) (enzyme)”, the kapp (apparent second-order rate constant for inhibition) was 5e+06 M⁻¹ s⁻¹.

On to “FIXa K228N/R318Y/E410N (from UniProt P00740 47-191; P00740 227-461) (enzyme)”, for which the kapp (apparent second-order rate constant for inhibition) came to 1.9e+06 M⁻¹ s⁻¹.

Take “FIXa K247N/N249S/R318Y/R338E/R403E/E410N (from UniProt P00740 47-191; P00740 227-461) (enzyme)”: the kapp (apparent second-order rate constant for inhibition) came to 2000 M⁻¹ s⁻¹.

“FIXa D203N/F205T/R318Y/E410N (from UniProt P00740 47-191; P00740 227-461) (enzyme)”: the kapp (apparent second-order rate constant for inhibition) stood at 53000 M⁻¹ s⁻¹.

Regarding “FIXa D85N/K228N/R318Y/R338E/R403E/E410N (from UniProt P00740 47-191; P00740 227-461) (enzyme)”, the kapp (apparent second-order rate constant for inhibition) is 3000 M⁻¹ s⁻¹.

“FIXa A103N/N105S/K247N/N249S/R318Y/R338E/R403E/E410N (from UniProt P00740 47-191; P00740 227-461) (enzyme)”: the kapp (apparent second-order rate constant for inhibition) was 1700 M⁻¹ s⁻¹.
